Measurements: the RNAGym collection of RNA variant scans (doi:10.1093/molbev/msab373)

B1: Azoarcus group I ribozyme (parent)
chain: GUGCCUUGCGCCGGGAAACCACGCAAGGGAUGGUGUCAAAUUCGGCGAAACCUAAGCGCCCGCCCGGGCGUAUGGCAACGCCGAGCCAAGCUUCGGCGCCUGCGCCGAUGAAGGUGUAGAGACUAGACGGCACCCACCUAAGGCAAACGCUAUGGUGAAGGCAUAGUCCAGGGAGUGGCGAAAGUCACACAAACCGG

Variants of: B1
Assay: reverse-splicing fitness (ratio to wild type); higher = more active; in vitro selection; Mg2+ level not given
Procedure, shortened: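 An in vitro group I ribozyme library with randomized positions was T7-transcribed and gel-purified. In triplicate, 10 pmol RNA in EPPS pH 7.5 was reacted with 50 pmoles of a 30-nt RNA substrate for 1 h at 37 °C across several added MgCl2 levels (1–48 mM), then stopped with EDTA. Products were reverse transcribed from a substrate-complementary primer, PCR-amplified and sequenced (HiSeq 4000). Fitness is a variant's read proportion after selection over that before, normalised to wild type.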

Row | Variant | reverse-splicing fitness
1 | C82A A111G A120G A145U C150U | 0.0134
2 | C82A A111G A120G A145U C150G | 0.00709
3 | C82A A111G A120C U176G | 0.00892
4 | C82A A111G A120C U176C | 0.032
5 | C82A A111G A120C U176A | 0.0208
6 | C82A A111G A120C A145U C169G | 0.00967
7 | C82A A111G A120C A145U C169U | 0.0135
8 | C82A A111G A120C A145U C169A | 0.00859
9 | C82A A111G A120G A145C C150G U176A | 0.0058
10 | C82A A111G A120G A145C C150G U176C | 0.0087
11 | C82A A111G A120G A145C C150G U176G | 0.00287
12 | C82A A111G A120G A145G C150G C169U U176G | 0.00793
13 | C82A A111G A120G A145G C150G C169U U176C | 0.0133
14 | C82A A111G A120G A145G C150G C169U U176A | 0.0118
15 | C82A A111G A120G A145G C150A C169G U176C | 0.0239
16 | C82A A111G A120G A145G C150A C169G U176A | 0.0194
17 | C82A A111G A120G A145G C150A C169G U176G | 0.00592
18 | C82A A111G A120G A145C U176G | 0.00516
19 | C82A A111G A120G A145C U176C | 0.0105
20 | C82A A111G A120G A145C U176A | 0.0113
21 | C82A A111G A120C C150G C169A U176A | 0.0116

Row | Variant | reverse-splicing fitness
22 | C82A A111G A120C C150G C169A U176G | 0.00791
23 | C82A A111G A120C C150G C169A U176C | 0.0139
24 | C82A A111G A120G A145U C169G U176C | 0.0158
25 | C82A A111G A120G A145U C169G U176G | 0.00452
26 | C82A A111G A120G A145U C169G U176A | 0.0122
27 | C82A A111G A120G A145G C150U | 0.0145
28 | C82A A111G A120G A145G C150G | 0.00769
29 | C82A A111G A120G A145G C150A | 0.00972
30 | C82A A111G A120G A145G C150A C169A U176G | 0.00687
31 | C82A A111G A120G A145G C150A C169A U176A | 0.0205
32 | C82A A111G A120G A145G C150A C169A U176C | 0.0218
33 | C82A A111G A120C A145U U176A | 0.0171
34 | C82A A111G A120C A145U U176C | 0.0247
35 | C82A A111G A120C A145U U176G | 0.00629
36 | C82A A111G A120G A145C C150A C169A U176A | 0.0118
37 | C82A A111G A120G A145C C150A C169A U176C | 0.00609
38 | C82A A111G A120G A145C C150A C169A U176G | 0.00578
39 | C82A A111G A120C C150U C169A U176A | 0.0187
40 | C82A A111G A120C C150U C169A U176C | 0.0154
41 | C82A A111G A120C C150U C169A U176G | 0.00635
42 | C82A A111G A120G C150G C169A | 0.00929

Row | Variant | reverse-splicing fitness
43 | C82A A111G A120G C150G C169U | 0.00856
44 | C82A A111G A120G C150G C169G | 0.00739
45 | C82A A111G A120G C150A | 0.0105
46 | C82A A111G A120G C150U | 0.0127
47 | C82A A111G A120G C150G | 0.00686
48 | C82A A111G A120C A145U C150U U176G | 0.00709
49 | C82A A111G A120C A145U C150U U176A | 0.0145
50 | C82A A111G A120C A145U C150U U176C | 0.0248
51 | C82A A111G A120G A145G U176G | 0.00638
52 | C82A A111G A120G A145G U176C | 0.0205
53 | C82A A111G A120G A145G U176A | 0.0128
54 | C82A A111G A120C A145U C169U U176A | 0.0152
55 | C82A A111G A120C A145U C169U U176C | 0.0131
56 | C82A A111G A120C A145U C169U U176G | 0.00505
57 | C82A A111G A120G A145U C150A U176A | 0.0117
58 | C82A A111G A120G A145U C150A U176G | 0.00563
59 | C82A A111G A120G A145U C150A U176C | 0.0154
60 | C82A A111G A120G C150G C169G U176A | 0.00689
61 | C82A A111G A120G C150G C169G U176G | 0.00489
62 | C82A A111G A120G C150G C169G U176C | 0.00515
63 | C82A A111G A120G C150A U176A | 0.0129

Row | Variant | reverse-splicing fitness
64 | C82A A111G A120G C150A U176C | 0.0186
65 | C82A A111G A120G C150A U176G | 0.00961
66 | C82A A111G A120G A145C C150A | 0.0077
67 | C82A A111G A120G A145C C150U | 0.0102
68 | C82A A111G A120G A145C C150G | 0.00656
69 | C82A A111G A120G A145G C150U C169G U176A | 0.0157
70 | C82A A111G A120G A145G C150U C169G U176C | 0.0176
71 | C82A A111G A120G A145G C150U C169G U176G | 0.00529
72 | C82A A111G A120G A145C C169G | 0.0122
73 | C82A A111G A120G A145C C169U | 0.0103
74 | C82A A111G A120G A145C C169A | 0.00912
75 | C82A A111G A120G A145G C150A U176A | 0.0103
76 | C82A A111G A120G A145G C150A U176G | 0.00899
77 | C82A A111G A120G A145G C150A U176C | 0.0203
78 | C82A A111G A120G A145G C150U C169A U176G | 0.0063
79 | C82A A111G A120G A145G C150U C169A U176A | 0.016
80 | C82A A111G A120G A145G C150U C169A U176C | 0.0174
81 | C82A A111G A120G A145G C169G U176G | 0.00435
82 | C82A A111G A120G A145G C169G U176A | 0.0204
83 | C82A A111G A120G A145G C169G U176C | 0.0276
84 | C82A A111G A120C A145U C150U C169U U176C | 0.0124
